{
  "source": "patent US20060172935A1",
  "about": "(published 2006)",
  "key": {"[1]": {"target": "PKR2 stably expressed in Chinese Hamster Ovary cells (CHO-PKR2)", "assay": "cell-based or functional assay"}, "[2]": {"target": "T1, mouse PK2 receptor (mouse, UniProt Q8K458 1-381)", "T1 construct": "G-protein coupled receptor; also called PKR2; mouse PKR2", "T1 sequence (Q8K458 whole entry)": "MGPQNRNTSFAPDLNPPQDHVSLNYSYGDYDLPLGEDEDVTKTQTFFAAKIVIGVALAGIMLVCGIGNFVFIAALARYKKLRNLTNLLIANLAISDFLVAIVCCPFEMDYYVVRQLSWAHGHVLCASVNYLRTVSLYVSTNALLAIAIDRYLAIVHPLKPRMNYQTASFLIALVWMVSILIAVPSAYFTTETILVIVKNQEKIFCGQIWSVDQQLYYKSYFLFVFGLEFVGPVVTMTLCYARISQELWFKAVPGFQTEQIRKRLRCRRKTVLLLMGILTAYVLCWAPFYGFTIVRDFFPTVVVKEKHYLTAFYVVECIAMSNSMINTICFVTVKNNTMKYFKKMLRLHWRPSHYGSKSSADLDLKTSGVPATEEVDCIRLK", "assay": "PK2 receptor binding assay with radioiodinated ligand (FIG. 11)", "source_text": "An exemplary assay for determining binding of detectably labeled PK2, PK1 or PK2/PK1 chimera to PK2 receptor or PK1 receptor is the radioligand filter binding assay described in Li et al. Molecular Pharmacology 59:692-698 (2001)). […] A variety of other low- and high-throughput assays suitable for detecting selective binding interactions between a receptor and a ligand are known in the art. Such assays include, for example, fluorescence correlation spectroscopy (FCS) and scintillation proximity assays (SPA) reviewed in Major, J. Receptor and Signal Transduction Res. 15:595-607 (1995); and in Sterrer et al., J. Receptor and Signal Transduction Res. 17:511-520 (1997)). Binding assays can be performed in any suitable assay format including, for example, cell preparations such as whole cells or membranes that contain PK2 receptor or PK1 receptor, or substantially purified PK2 receptor polypeptide or PK1 receptor, either in solution or bound to a solid support."}},
  "data": [
    {"molecule": "purified recombinant mouse PK2 (from UniProt Q9QXU7 27-128) (ligand)", "values": [
      {"measurement": "EC50, calcium mobilization", "setting": "[1]", "result": 7.3, "unit": "nM"},
      {"measurement": "fold stimulation of CLOCK:BMAL1-mediated transcription of the 2.8 kb PK2 promoter (luciferase)", "setting": "[1]", "result": 4, "unit": "fold"}
    ]},
    {"molecule": "125I-human PK2 (iodinated human prokineticin 2) (ligand, radioiodinated with 125I (residue not stated for this assay), also called iodinated PK2) AVITGACDKDSQCGGGMCCAVSIWVKSIRICTPMGKLGDSCHPLTRKVPFFGRRMHHTCPCLPGLACLRTSFNRFICLAQK", "values": [
      {"measurement": "Kd", "setting": "[2]", "result": "~1", "unit": "nM"}
    ]}
  ]
}
